Source: US12162911B2, “Pulmonary administration of pyocins for treating bacterial respiratory infections” (priority 2014, dated 2024)

Tests used:
P. aeruginosa P8 = experiment: Mouse model of acute lung infection, P. aeruginosa P8; assay type: in vivo, Pseudomonas aeruginosa; settings: for Lowest active concentration tested: lowest concentration tested with which the treated mice survived to 24 h; for Corresponding molarity: molarity of lowest active concentration tested; for reduction of bacterial load in lung: 3 mg ml^−1 intranasal 1 h post-infection, culled 4.5 h post-infection (FIG. 1c); for reduction of bacterial numbers in lung: C57/BL6 mice, 3 mg ml^−1 intranasal 6 h pre-infection, culled 4 h post-infection (FIG. 1a)
Method: Study design. […] For all experiments 6 week-old, female, murine pathogen free C57/BL6 mice weighing 15-21 g were used (Charles Rivers Laboratories, UK). All mice received food and water ad libitum and were housed in groups during the experiments. Power calculations were used to predetermine sample size (n=6, for all treatment experiments). Mice were culled when required as determined by a scoring system or culled at the pre-determined 24 h time point. All mice, including outliers were included in the statistical analysis. Experiments were either carried out once only or repeated once (defined for each experiment).
(§1) Model of acute lung infection. Female C57/BL6 mice were inoculated intranasally with 25 μl of bacterial culture containing approximately 10^7 CFU of the selected P. aeruginosa strain^36. Antibiotic treatments were administered at either 6 h pre-infection or 1 h post-infection and were administered only once. Pyocins or tobramycin dissolved in PBS were administered via intranasal administration as described above. Two different end-points were used in these experiments. In order to determine a reduction in the bacterial load of the lungs compared to the untreated controls, all mice in the experiment were culled by carbon dioxide asphyxiation at the same time; 4-6 h post infection. To determine if mice could survive infection after pyocin or tobramycin treatment, mice were monitored closely, culled by carbon dioxide asphyxiation when required as determined by a scoring system or culled at the pre-determined 24 h time point. Uninfected mice, treated with pyocins, were used as controls in the first series of experiments in order to ensure no adverse effects from pyocin treatment. These controls were stopped in later experiments in order to reduce the number of animals used, once it was clear that the pyocins were not harmful. For CFU determination, lungs were removed aseptically and kept on ice in 750 μl of PBS until homogenised. Serial 10-fold dilutions of the homogenised lung were plated on Pseudomonas selective agar (20 g peptone, 1.5 g K2HPO4, 1.5 g MgSO4·7H2O, 10 ml glycerol, 15 g agar, 0.025 g Irgasan per litre) and incubated at 37° C. for 24 h and then room temperature for 24 h before the colonies were counted.

[1] = tested on: P. aeruginosa P5 (mucoid); experiment: Mouse model of acute lung infection, P. aeruginosa P5; assay type: in vivo, Pseudomonas aeruginosa; settings: for survival / protection: pyocin 3 mg ml^−1, endpoint 24 h, infected controls culled at 4.5 h; for bacterial count in lung, P5: pyocin 3 mg ml^−1, treated mice survived to 24 h, no treatment 1.7 × 10^5 CFU/lung
Method: as §1
(§2) Since strains of P. aeruginosa are phenotypically diverse, we tested the efficacy of the pyocins against three additional isolates: P. aeruginosa P17 and P. aeruginosa P5 (mucoid), both from cystic fibrosis patients and P. aeruginosa E2, an environmental isolate. Pyocin S2 was not active against P. aeruginosa P5 or P. aeruginosa E2 in vitro therefore was not used to treat these strains in vivo and similarly pyocin L1 was not used against P. aeruginosa P17. […] Lung homogenates from P. aeruginosa E2-infected AP41-treated mice contained high levels of viable bacteria, reduced only 10-fold relative to control mice (Table 1). […] Thus, pyocins show strong efficacy against diverse strains of P. aeruginosa with pyocin S5 treatment displaying the largest effect on reducing bacterial load.

P. aeruginosa E2 = experiment: Mouse model of acute lung infection, P. aeruginosa E2; assay type: in vivo, Pseudomonas aeruginosa; settings: for survival / protection: pyocin 3 mg ml^−1, endpoint 24 h, infected controls culled at 5.5 h
Method: as §1, §2

P8AP41T [2] = experiment: Mouse model of acute lung infection, AP41 tolerant strain P8AP41T; assay type: in vivo, Pseudomonas aeruginosa; settings: 3 mg ml^−1 1 h post-infection; for bacterial numbers in lung homogenates: 24 h (FIG. 3b); for survival: endpoint 24 h, PBS controls culled 6 h post-infection (FIG. 3b)
Method: as §1
(§3) In order to determine if pyocin tolerance or resistance was acquired upon pyocin treatment in vivo, viable bacteria recovered from mice that survived infection to the 24 h end-point, in all experiments discussed in this work, were tested for pyocin susceptibility. From these experiments no pyocin resistant colonies were isolated. […] Importantly, sensitivity to pyocins S5 and L1 were unaffected in vitro in this pyocin AP41-tolerant strain (FIG. 3a) and this was also shown to be the case in vivo when mice were infected with P8AP41T.

P8AP41T [3] = experiment: Pyocin sensitivity in vitro (spot tests) of strain P8AP41T; assay type: cell-based, Pseudomonas aeruginosa
Method: Pyocin sensitivity assays: overlay spot plate method. Soft agar overlay spot plates were performed using the method of ^35. 150 μl of test strain culture at OD600 nm=0.6 was added to 6 ml of 0.8% soft agar and poured over an LB agar plate. 5 μl of bacteriocin, lung homogenate or blood at varying concentrations was spotted onto the plates and incubated for 24 h at 37° C.
as §3

P. aeruginosa P17 = experiment: Mouse model of acute lung infection, P. aeruginosa P17; assay type: in vivo, Pseudomonas aeruginosa
Method: as §1, §2

[4] = tested on: collection of diverse environmental and clinical isolates; experiment: Activity against a collection of diverse environmental and clinical isolates; assay type: cell-based, Pseudomonas aeruginosa
P. aeruginosa PA01 = experiment: Mouse model of acute lung infection, P. aeruginosa PA01; assay type: in vivo, Pseudomonas aeruginosa
Method: as §1, with “Uninfected mice, treated with pyocins, were used as controls in the first series of experiments in order to ensure no adverse effects from pyocin treatment. These controls were stopped in later experiments in order to reduce the number of animals used, once it was clear that the pyocins were not harmful. For CFU determination, lungs were removed aseptically and kept on ice in 750 μl of PBS until homogenised.” left out
A similar experiment was performed using pyocin SD2. […] The bacterial load of the lungs was determined and control mice had approx 2×10^5 CFU/lung, 6 h after infection.

Molecule	Lowest active concentration tested (P. aeruginosa P8) [µg/mL]	Corresponding molarity (P. aeruginosa P8) [µM]	reduction of bacterial load in lung (P. aeruginosa P8)	reduction of bacterial numbers in lung (P. aeruginosa P8) [fold]	survival / protection [1]	bacterial count in lung, P5 [1]	survival / protection (P. aeruginosa E2)	bacterial numbers in lung homogenates (P8AP41T [2])	survival (P8AP41T [2])	other results
NC[C@H]1O[C@H](O[C@H]2[C@H](O)[C@@H](O[C@H]3O[C@H](CO)[C@@H](O)[C@H](N)[C@H]3O)[C@H](N)C[C@@H]2N)[C@H](N)C[C@@H]1O [Tobramycin, tobramycin, reference compound]	300	641								survival (P. aeruginosa P8; 300 μg ml^−1, 1 h post-infection (FIG. 2b)): survived to 24 h; bacterial counts compared to the PBS controls (P. aeruginosa P8; 300 μg ml^−1, 24 h post-infection (FIG. 2b)): significantly reduced the bacterial counts
Pyocin L1: lectin-like pyocin, SEQ ID NO: 24; receptor believed to be common polysaccharide antigen of LPS (protein, listed as Pseudomonas aeruginosa) MASSLAPRQVIRDGQFITSPNGKYKLVMQADGNLVLYEDGTKPIWNTTPVGPGAKAVMEFNLNLYNKAGQVAWSSNVYTAYLFEEFKDEAYLNLQDDGDFGIFSDEAKWGSIVLSRPEVGVKNKIIPTGTVMVPGTEYINGNYRLAFQGDGNLVIYQINPQVVIWATYTMGADRAVVQEDGNFVIYKGTTALWHTHTATGMPAYLKFTNTGKLFLSQPTLLWTLKRGSLSKPPKVIPGQHGPLDTTPIWSWPHDYP	30	1.06	approximately 20 fold	~1500	survived until the 24 h endpoint	40 CFU/lung	survived until the 24 h endpoint	significantly reduced bacterial numbers	survived until the endpoint of the experiment at 24 h	mice culled at 6 h post-infection due to the severity of symptoms (P. aeruginosa P8; 30 μg ml^−1, six mice): three of the six; survival (P. aeruginosa P8; 300 μg ml^−1, endpoint 24 h post-infection): survived until the endpoint of the experiment at 24 h post-infection; bacterial count in lung, E2 (P. aeruginosa E2; pyocin 3 mg ml^−1, treated mice survived to 24 h, no treatment 1.5 × 10^5 CFU/lung): No colonies; sensitivity of the pyocin AP41-tolerant strain in vitro (P8AP41T [3]; spot tests, FIG. 3a): unaffected
Pyocin AP41: S-type pyocin, SEQ ID NO: 18; effector has DNase activity (protein, listed as Pseudomonas aeruginosa) MSDVFDLGSMTTVATATGQYSFYTPPPPTPIPYLTYIARPGINKFDLPEGAKIKDLIKRYQYIGSQIPAAIMIRGVQEEIKKSTNTALANVGAIVDGELAYLASQKKEKLNPAEATPLQMASAEKAAAVELLASKQKELADARTIANAFFGYDPLTVNYVNVMNEIYGRREDKDFSFDNWSKSYSAAQKIRLIEAKISVLNSRSSALDGKVAELTRLQRLEDAQHAAEAARQTEAERLAQEQRQAEARRQAEEARRQAEAQRQAELQRLAEAEAKRVAEAEKKRQDEINARLQAIVVSESEAKRIEEIYKRLEEQDKISNPTVTTPPAVDAGSRVDDALAHTGTRVTSGGETGATGGSGRDVDTGTGQGGITARPVDVGSVSIPDRRDPKIPDQPRRDLGSLVPTFPDFPTFPSFPGVGVPAAAKPLIPAGGGAASVSRTLKTAVDLLSVARKTPGAMLGQVAAVVATMAVSSFWPKLNNGERQASFAIPVAELSPPLAVDWQAIAAAKGTVDLPYRLKTLNVDGSIQIIAVPTEPGSAAVPVRALTLDSASGTYKYTTTGPGGGTILVTPDTPPGQIDPSSSTPAVPRGPLIMPGTLLIPKEPQIESYPELDQREFNDGIYVYPEDSGIPPLYIVYRDPRDEPGVATGNGQPVTGNWLAGASQGDGVPIPSQIADQLRGKEFKSWRDFREQFWMAVSKDPSALENLSPSNRYFVSQGLAPYAVPEEHLGSKEKFEIHHVVPLESGGALYNIDNLVIVTPKRHSEIHKELKLKRKEK	30	0.319	~130 fold	~650	successful	No colonies	failed to afford protection	significantly reduced bacterial numbers	survived until the endpoint of the experiment at 24 h	survival (P. aeruginosa P8; 300 μg ml^−1 and 30 μg ml^−1 (both concentrations), endpoint 24 h post-infection): survived until the endpoint of the experiment at 24 h post-infection; bacterial count in lung, P17 (P. aeruginosa P17; 1 mouse that coughed up the treatment, culled at 4 h post-infection): ^+1 mouse coughed up AP41 treatment and was culled at 4 h post-infection, bacterial count 1.3 × 10^5 CFU/lung.; survival / protection (P. aeruginosa P17; pyocin 3 mg ml^−1, endpoint 24 h, infected controls culled at 4 h): five out of six; bacterial count in lung, P17 (P. aeruginosa P17; pyocin 3 mg ml^−1, treated mice survived to 24 h, no treatment 4.4 × 10^5 CFU/lung): No colonies; reduction of viable bacteria in lung homogenates relative to control mice (P. aeruginosa E2; pyocin 3 mg ml^−1, culled at 5.5 h post-infection): 10 fold; bacterial count in lung, E2 (P. aeruginosa E2; pyocin 3 mg ml^−1, mice culled at same time as control (5.5 h post-infection)): 1.3 × 10^4 CFU/lung; increased tolerance of isolate P8AP41T (P8AP41T [3]; single isolate from pyocin AP41 (3 mg ml^−1 post-infection) treated bacteria): approximately 1000 fold; susceptibility of P8AP41T during infection (P8AP41T [3]; strain recovered from untreated control mice (P8AP41T*), FIG. 3a): remained tolerant; strains against which active [4]: 87%
Pyocin SD2: S-type pyocin, SEQ ID NO: 7; targeting domain binds LPS common polysaccharide antigen (protein, listed as Pseudomonas aeruginosa) MAVNDYEPGSMVITHVQGGGRDIIQYIPARSSYGTPPFVPPGPSPYVGTGMQEYRKLRSTLDKSHSELKKNLKNETLKEVDELKSEAGLPGKAVSANDIRDEKSIVDALMDAKAKSLKAIEDRPANLYTASDFPQKSESMYQSQLLASRKFYGEFLDRHMSELAKAYSADIYKAQIAILKQTSQELENKARSLEAEAQRAAAEVEADYKARKANVEKKVQSELDQAGNALPQLTNPTPEQWLERATQLVTQAIANKKKLQTANNALIAKAPNALEKQKATYNADLLVDEIASLQARLDKLNAETARRKEIARQAAIRAANTYAMPANGSVVATAAGRGLIQVAQGAASLAQAISDAIAVLGRVLASAPSVMAVGFASLTYSSRTAEQWQDQTPDSVRYALGMDANKLGLTSSVNLSAVAKAGGTVDLPMRLTNEARGNTTTLSVVSTDGVSVPKAAPVRMAAYNATTGLYEVTVPSTTAEAPPLILTWTPASPPGNQNPSSTTPVIPKPVPVYEGAALTPLKTGPESYPGMLLDLNDLIVIFPADSGVKPVYVMLSSPLDSGIFTRRQLQKKFDSHKYDFGLGEKSANNGTLAEFRDKILEHLADPATVEKGTYHSEVNSKVHYNARTNIVVIIGEDGMFVSGWRIEPGTDQYNFYMKNEVL										bacterial load of the lungs (P. aeruginosa PA01; 3 mg ml^−1 1 h post-infection, 24 h post-infection, control approx 2×10^5 CFU/lung at 6 h): no colonies or 10; survival (P. aeruginosa PA01; C57/BL6 mice, 3 mg ml^−1 intranasal 1 h post-infection, endpoint 24 h (FIG. 7)): survived to the endpoint of the experiment at 24 h
